According to the nanobody polyreactivity screen of Harvey et al. (2022):

Assay: yeast display, Sf9 membrane polyspecificity reagent, FACS + sequencing; frameworks hold sequencing errors
Outline: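 Genes from sorted yeast were amplified by colony PCR, read by MiSeq 2 × 250 sequencing and filtered on CDR length. These cells carried a synthetic nanobody library in Saccharomyces cerevisiae BJ5465 and were sorted by FACS into low and high (top ~1%) gates on anti-HA and streptavidin fluorescence. Polyreactivity is labelled according to the gate of origin.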

Sequence	polyreactivity (PSR sort gate)
QVQLVESGGGLVQAGGSLRLSCAATGITFEYNAMGWYRQAPGKERELVAAISLSSGSTYYADSVKGRFTISRDNAKNTVYLQMNSLKPEDTAVYYCNADTIIYEGGYWGQGTQVTVSS	low polyreactivity
QVQLVESGGGLVQAGGSLRLSCAASGSIFGNYVMGWYRPAPGKERELVAAISWSGGTNYADSVKGRFTISRDNAKNTVYLQMNSLKPEDTAVYYCAALSVWSYYTYYYWGQGTQVTVSS	high polyreactivity
QVQLVESGGGLVQAGGSLRLSCAASGRTFYKYGRGWYRQAPRKERELVASISSGGNTYYADSVKGRFTISRDNAKHTVYLQMNSLKPDASAVFYCAAVNYWPFYYYVYGYWGQGTQVTVSS	high polyreactivity
QVQLVESGGGLVQAGGSLRLSCAASGSTFCYYAMGWYRQAPGKERELLAAITRSGGRTYYADSVKGRFTISRDNAKNTVYLQMNSLKPEDTAGYYCAADSRVGFGRLYGYWGQGTQVTVSS	high polyreactivity
QVQLVESGGGLVQAGGSLRLSCAASGFTFGSNAMGWYRQAPGKERELVAAINYSGVRTYYADSVKGRFTISRDNAKNTVYLQMNSLKPEDTAVSYCAKKRSKPISFDYWGQGTQVTVSS	high polyreactivity
QVQLVESGGGLVQAGGSLRLSCAASGRIFVLYAMGWYRQAPGKERELVADITFDGGSTYYADSVKGRFTISRDNAKNTVYLQMNSLKPEDTAVSFCAARYRWSRKRYNDYDYWGQGTQVSVSS	high polyreactivity
QVQLEDSGGVLVQAGGSLRLSCAASGFIYRFYPMGWYRKAPGKERELVAGISSSGGSTYYADSVKGRFTISRDYAKNTVYLQMNSLKPEDTAVFYCNAKRSDQSYKTFNYWGQGTQVTVSS	low polyreactivity
QVQLVESGGGLVHAGGRLRLSCAASGSIFDYYAMGWSRPAPGKERELVADNTSGGSTNYADSVKGRFTISRDNAKNTVYLQMNSLKPEDTAVYYCATRIGYSDWPDGVWDLDDSEYYYWGQGTQVTVSS	low polyreactivity
QVQLVDSVGGLVQAGGSLPLICAASGSTFGNYAKGWYRQAPGKERELVAAINSGDSTSYADSVKGRFTISRDNANNTVYLHMNSLKPEDTAVYYCSVRPRRNQYGYWGQGTQLTVSS	low polyreactivity
QVQLVESGGGLVQAGGSLRLSCAASGSTFKRNAMGWYRQAPGNERELVAAITDNTSTTFYADSVKGRFTISRDNAKNTVYLQMNSLKPEDTAVYYCAADHSGGSRYDYWGQGTQVTVSS	low polyreactivity
QVQLVESGGGLVQAGGSLRLSCAASGLIFWGYTMGWYRQAPGKERELVAAISRRGGRTYYADSVKGRFTISRDNAKNTVYLQMNSLKPEDTAVYYCNADITSSGPKSDYWGQGTQVTVSS	high polyreactivity
QVQLVESGGGLVQAGGSLRLSCAASGITVGDYAMGWYRQAPGKEREVVAAISYTGGSTYYADSVKGRFTISRDNAQNTGYLQMNSLKPEDTAVYYCAADGYRDYDSWGQGTQVTVSS	high polyreactivity
QVQLVESGGGLVQAGGSLRLSCAASGRIFEYYAMGWYRQAPGKERELVAAIRSGGRTYYADSVKGRFTISRDNAKNTVYLQMNSLKPEDTAVYYCNKLYRGGYGYWGQGTQVTVSS	high polyreactivity
QVQLVESGGGLVQAGGSLRLSCAASGFIFIAYVMGWYRQAPGKERELVAAITRSGASTYYADSVKGRFTISRDNAKNTVYLQMNSLKPVDTAVYYCAARGAYSFYGYYYWGQGTQVTVSS	high polyreactivity
QVQLVESGGGLVQAGGRLRLRCAASGFIFSIYTMGWYRQAPGKERELVAAISWSGGSKYYADSVKGRFTISRDNAKNTVYLQMNSLKPEDTAVYYCNRVQFSPVYRFREYDYWGQGTQVTVSS	high polyreactivity
QVQLVESGGGLVQAGGSLRLSCAASGRISVVNARGWYRQAPGKERELVAAIRRASTNYADSVKGRFTISRDIAKNTVYLQMNILKPEDTAVYYCAARVYGINIFEYWGQGTQVTVSS	high polyreactivity
QVQLVESGGGLVQAGGSLRLSCAASGFTSRKNAMGWYSQAPGKERELVAAITQSSGRTYYADSVKGRFTISRDNAKNTVYLQMNSLKPEDTAVYYCAARRGGEDDYWGQGTQVTVSS	low polyreactivity
QVQLVESGGRLVQAGGSLRLSCAASGIIFTNYAMGWYRQAPGKERELVAAISSSSGTTYYADSVKGRFTISRDNAKNTVYLQMNSLKPEDTAVYYCAARPVYSTGYPRGRYGYWGQGTQVTVSS	high polyreactivity
QVQLVESGGGLVQAGGRLRLSCAASGSTLSGNAMGGYRQAPGKERELVAAITSSGGRTYYADSVKGRFTISRDNAKNTVYLQMNSLKPEDTAVYYCAKDRYGWGQGTQVTVSS	high polyreactivity
QVQLVESGGGLVQAGGSLRLSCAASGSIFPYNAMGWYRQAPGKERELVAAISKRGGSTYYADSVKGRFTISRDNAKNTVYLQMNSLKPEDTAVYYCAARYPPYRSWYSYDYWGQGTQVTVSS	low polyreactivity
QVQLVESGGGLVQAGGSLRLSCAASGSIFSSNAMGWYRPAPGKERELVAAISWNGGRTYYADSVKGRFTISRDNAKNTVYLQMNSLKPEDTAVYYCATRFYRPRDGLYDYWGQGTQVTVSS	high polyreactivity
QVQLVESGGGLVQAGGSLRLSCAASGSTFGPYAMGWYRQAPGKERELVAAIRSDGGTYYADSVKGRFTISRDNAKNTVYLQMNSLKPEDTAVYYCATRPINSYYDHDSWGQGTQVTVSS	high polyreactivity

Sequence	polyreactivity (PSR sort gate)
QVQLVESGGGLVQAGGSLRLSCAASGRIFSVYAMGWYRQAPGKEREFVAAITKGGVGTYYADSVKGRFTISRDNAKNTVYLQMNSLKPEDTAVYYGAARHYYGADRYYSWGQGTQVTVSS	high polyreactivity
QVQLVESGGGLDQAGGSLRLSCAASGRTFTHNVMGWYRQAPGKEMELVAGISSTGGSTYYADSVKVRFTISRDNAKNTVYLQMNSLKPEDTAVYYCAKQRRSFYDFFHYDYWGLGTQVTVSS	low polyreactivity
QVQLVESGGGLVQAGGSLRLSCAASGSIFTPNAMGWYRQAPGKERELVAAISSSSDRTYYADSVKGRFTISRDNAKNTVYLQMNSLKPEDTAVYYCAAYAQKRYYWGQVTQVTVSS	high polyreactivity
QVQLVESGGGLLQSGGSLRLSCAASGFIFRSYAMGWYRQAPGKEREFVASISSRGGTTYYADSVKGRFTISRDNAKKTVYLQMNRLKPEDTAVYYCAADYFRWAGWGYEYWGQGSQVTVSS	high polyreactivity
QVQLVDSGGGLVQAGGSLRLSCAASGFILYFNAMGWYRQAHGKERELVAAISRGDGSTYADSVKGRFTISRDNAKNTVYLQMNSLKAQDTAVYYCNAGLGVVVTHYVGYGYDSWGQGTQVTVSS	low polyreactivity
QVQLVESVGGLVQAGGSLRLSCAASGSTFGHNAMGWYRQAPGKERELVAVITSGGSTYYADSVKGRFTISRDNAKNTVYLQMNSLKPEDTAVYYCAKRYWSRGSKSSPYAYDYWGQGTQVTVSS	high polyreactivity
QVQLVESGGGLVQAGGSLRLSCAASGSTFESNAMGWNRQAPGKERDLVASISGSGGSTFYADSVKGSFTISRDNAKNTVYLQMNILKPEDTGVYYCAAYKEPYYEEYGYWGQGTQVTVSS	low polyreactivity
QVQLVESGGRLVQAGGSLRLSCAASGNILRFNALGWYRQAPGKEWQLVAAISRSGGTTYFADSVKGRFTISRDTAKNTVYLQMNSLKPEDTAVYYCAARSRYGESPGYYWGQGTQVTVSS	high polyreactivity
QVQLVESGGGLVQAGGSLRLSCAASGRIFTHNAMGWYRQAPGKERELVAAISYSGVSTYYADSVKGRFTISRDNAKNTVYLQMNSLKPEDTAVYYCAARSRSWRQRYGDFDYWGQGTQVTVSS	low polyreactivity
QVQLVESGGGLVQAVGSLRLSCAASGRTFWANTMGWYRQAPGKERELVAAISKRGGSTYYADSVKGRFTISRDNAKNTVYLQMNSLKPEDTAVYYCNADKSGWYDYWGQGTQVTVSS	high polyreactivity
QDQLVESGGGLVQAGRSLRLTCAASGSIIPGNAMGWYRQAPGKERELVAVIDFSGASTYYADSVKGRFTISRDNAKNTVYLQMNSLKPEDTADYWGQGTQVTVSS	low polyreactivity
QVQLVESGGGLVQAGGSLRLSCAASGFTRIYAMGWYRQAPGKERELVAAISQRGGRTYYADSVKGRFTISRDNAKNTVYLQMNSLKPEDTAVYYCNADRRSYNYPEYEYDYWGQGTQVTVSS	high polyreactivity
QVQLVESGGGLVQAGGSLRLSCAASGSIFQYNAMGWYRQEPGKERELVATITYIGGRTYYAYSVKGRFTISRDNAKNTVYLQMNSLKPEDTAVYYCAAEYYVISSPSFYEYDYWGQGTQVTVSS	low polyreactivity
QVQLVESGGGLVQAGGSLRLSCAASGSIFGAYAMGSYRQAPGKERELVASISDGGGTYYADSVKGRFTISRDNAKNTVYLQMNSLKPEDTAVYYCAADPPKRVPGGYWGQGTQVTVSS	low polyreactivity
QVQLVESGGGLVQAGGSLRLSCAASGFIFRYYAMGWYRQAPGKERELVAAITSRGSSTYYADSVKGRFTISRDNAKNTVYLQMNSLKPEDTAVYYCAARLRGDYVRYDYWGQGTQVTVSS	high polyreactivity
QVQLVESGGGLQQAGGSLRLSCDASGITFRQYTMGWCRQAPGKERELVAAITSSGRTYYADSVKGRFTISRDNAKNTVYLHMNSLKPEDTAVYYCAAETYYFGYGYWGQGTQVTVSS	high polyreactivity
QVQLVESGGGLVQAGGSLRLSCAASGIIFQIYAKGWYRQAPGKERELVAAISGGGNTDYADSVKGRFTISRDNAKNTVYLQMNSLKPEDTAVYYCAADFVDWVWSRYGLFEHDYWGQGTQVTVSS	low polyreactivity
QVQLVESGGGLVQAGGSLRLSCAASGSTFGRYTMGWYRQAPGKEREFVAAIRWSGGNTYYADSVKGRFTISRDNAKNTVYLQMNSLKPEDTAVYYCNRVYSTIGDYWGQGTQVTVSS	low polyreactivity
QVQLVESGGGLVQAGGSLRLSCAASGRTFMRYAMGWYRQAPGKERELVAAISRGGGRTYYADSVKGRFTISRDNAKNTVYLQMNSLKPEDTAVYYCAADLSPEYDYWGQGTQVTVSS	high polyreactivity
QVQLVESGGRLVQAGGSLRLSCAASGFIFKLYGMGWYRQAPGKESEMVAAINTSGGRTYYADSVKGRFTISLDNAKNTVYLQMNSLKPEDTAVYYCNTYYSFYGGGYDHWVQGTQVTVSS	high polyreactivity
QVQLVESGGGLVQAGGSLRLSCAASGRTFASYTMGWYRQPPGKESELVAAINARGGNTYYADSVKGRFTISRDNAKNTVYLQMNSLKPEDTAVYYCAARQKRFKVAAGYDYWGQGTQVTVSS	high polyreactivity
